Assays:
[1] = target: linear di-ubiquitin (UniProt P0CG48 1-76; P0CG48 1-76); test: ITC
[2] = target: mono-ubiquitin (untagged, native N- and C-termini) (UniProt P0CG48 1-76); test: crystal structure

binding result [1]: binds | binding result [2]: binds
B1: HOIP-RBR (residues 696–1072) (domain or fragment, human, UniProt Q96EP0 696-1072, looked up)
chain: AQECAVCGWALPHNRMQALTSCECTICPDCFRQHFTIALKEKHITDMVCPACGRPDLTDDTQLLSYFSTLDIQLRESLEPDAYALFHKKLTEGVLMRDPKFLWCAQCSFGFIYEREQLEATCPQCHQTFCVRCKRQWEEQHRGRSCEDFQNWKRMNDPEYQAQGLAMYLQENGIDCPKCKFSYALARGGCMHFHCTQCRHQFCSGCYNAFYAKNKCPEPNCRVKKSLHGHHPRDCLFYLRDWTALRLQKLLQDNNVMFNTEPPAGARAVPGGGCRVIEQKEVPNGLRDEACGKETPAGYAGLCQAHYKEYLVSLINAHSLDPATLYEVEELETATERYLHVRPQPLAGEDPPAYQARLLQKLTEEVPLGQSIPRRRK

From paper PMC4856479 (Nature, 2016)
